Data taken from patent publication US20230054202A1 (ZYDUS LIFESCIENCES, published 2023).

B1: P14 (humanized version of 124F9) (antibody, IgG4, V domains shown)
VH: QVQLQESGPGLVKPSQTLSLTCTVSGYSITSGYYWNWIRQHPGKGLEWIGYISYDGGNKYNPSLKSRVTISRDTSKNQFSLKLSSVTAADTAVYYCARDLDGYESMDYWGQGTSVTVSS
VL: DIVMTQSPLSLSVTPGQPASISCKSSQSLLDINGKTYLNWYLQKPGQSPQLLIYLVSKLDSGVPDRFSGSGSGTDFTLKISRVEAEDVGVYYCWQGTHFPYTFGQGTKVEIKR
notes: Full-length humanized IgG4 made in CHO-S; also called pZRCIII Hyg P14LC-P14HC
B2: P15 (GLS) (humanized version of 103B2 with GLS in constant region) (antibody, human IgG4 S228P)
heavy: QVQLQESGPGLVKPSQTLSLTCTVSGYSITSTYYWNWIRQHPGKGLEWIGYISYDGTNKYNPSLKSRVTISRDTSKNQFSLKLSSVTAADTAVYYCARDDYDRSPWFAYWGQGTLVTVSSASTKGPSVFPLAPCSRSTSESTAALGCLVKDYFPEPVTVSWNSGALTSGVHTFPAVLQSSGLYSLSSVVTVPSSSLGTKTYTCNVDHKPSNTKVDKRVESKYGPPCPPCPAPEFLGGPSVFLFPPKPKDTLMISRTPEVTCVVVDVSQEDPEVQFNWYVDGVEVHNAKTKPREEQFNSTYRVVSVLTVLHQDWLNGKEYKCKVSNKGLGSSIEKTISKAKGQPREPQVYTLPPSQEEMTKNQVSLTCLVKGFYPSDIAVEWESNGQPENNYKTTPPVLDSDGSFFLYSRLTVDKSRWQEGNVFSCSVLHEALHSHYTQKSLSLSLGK
VL: DIQMTQSPSSLSASVGDRVTITCLASQTIGTWLAWYQQKPGKAPKLLIYAATSLADGVPSRFSGSGSGTDFTLTISSLQPEDFATYYCQQLYSTPWTFGGGTKLEIKR
notes: also called pZRCIII Hyg P15LC-P15HC (IgG4 GLS); copies: 2 + 2
B3: P15 (humanized version of 103B2) (antibody, human IgG4 S228P)
heavy: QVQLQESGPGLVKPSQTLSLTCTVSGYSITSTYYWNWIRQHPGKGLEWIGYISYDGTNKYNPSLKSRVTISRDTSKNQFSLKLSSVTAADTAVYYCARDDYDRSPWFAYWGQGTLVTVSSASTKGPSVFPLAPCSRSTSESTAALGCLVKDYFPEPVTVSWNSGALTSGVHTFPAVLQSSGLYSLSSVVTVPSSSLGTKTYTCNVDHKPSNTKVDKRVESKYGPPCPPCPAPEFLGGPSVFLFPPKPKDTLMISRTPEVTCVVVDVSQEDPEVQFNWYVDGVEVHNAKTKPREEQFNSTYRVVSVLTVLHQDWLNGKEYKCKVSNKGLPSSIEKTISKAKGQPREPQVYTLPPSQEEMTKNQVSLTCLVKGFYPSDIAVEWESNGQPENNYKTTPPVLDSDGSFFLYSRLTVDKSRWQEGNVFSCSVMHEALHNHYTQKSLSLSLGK
VL: B2 VL
notes: also called pZRCIII Hyg P15LC-P15HC; copies: 2 + 2
B4: P11 (humanized version of E12) (antibody, IgG4, V domains shown)
VH: QVQLQQSGPELVRPGVSVKISCKGSGYTFTDYALHWVKQSHAESLEWIGVISTYYGDASYNQKFKDKATMTVDISSSTAYLELARLTSEDSAIYYCARDGYLDYWGQGTLVTVSS
VL: QSVLTQPPSVSAAPGQKVTISCSGSSSNIGNNYVSWYVQLPGTAPKLLIYDNNKRFSGVPDRFSGSKSGTSATLGITGLQTGDEADYYCGAWDGSLREAVFGGGTKVTVLR
notes: Full-length humanized IgG4 made in CHO-S; also called pZRCIII Hyg E12LC-E12HC
B5: 103B2 (antibody, V domains shown)
VH: KPSQSLSLTCSVTGYSITSTYYWNWIRQFPGNKLEWMGYISYDGTNKYNPSLKNRISITRDTSKNRFFLKLNSVTTEDTATYYCAGDDYDRSPWFAYWGQGTLVTVSA
VL: DIVLTQSPASQSASLGESVTITCLASQTIGTWLAWYQQKPGKSPQLLIYAATSLADGVPSRFSGSGSGTKFSFKISSLQAEDFVSYYCQQLYSTPWTFGGGTKLEIKR
notes: Murine hybridoma antibody purified by Protein A; also called murine anti-properdin hybridoma mAb 103B2

Assays:
[1] = biological target: T1, native human purified properdin (Quidel; Cat No: A412) (human, UniProt P27918 28-469); assay: SPR (ProteOn XPR36), human properdin amine-coupled on GLC chip, mAb injected, 25 C, PBS pH 7.4
T1 construct: mature; Native purified commercial protein; In the haemolysis assays the properdin is the one present in normal human serum; also called human properdin; factor P
Description: The kinetic rate constants for the binding of anti properdin candidates to native human purified properdin (Quidel; Cat No: A412) were determined by Surface plasmon resonance-based measurement using the ProteOn XPR36 (Bio-Rad). All binding measurements were performed in PBS (pH 7.4, 0.005% Surfactant P20) at 25° C. To measure the binding rate constants of properdin to the mAbs, human properdin was immobilized onto a GLC sensor chip using amine coupling chemistry. […] The data, in the form of sensograms were analysed using data-fitting programs integrated in the ProteOn system. Binding affinities in terms of KD value are provided for tested antibodies in table 7.

[2] = biological target: T2, recombinant human neonatal Fc receptor (rhFcRn), Sino Biologics (human, UniProt P55899 24-297; P61769 21-119); assay: SPR (ProteOn XPR36), rhFcRn immobilized on GLC chip, antibody injected, PBS pH 6.0, 25 C
T2 construct: Bought protein
Description: The kinetic constants for the binding of antibodies to recombinant human neonatal Fc receptor (hFcRn) were determined by Surface plasmon resonance-based measurement using the ProteOn XPR36 (Bio-Rad). Recombinant rhFcRn receptor (Sino Biologics) was immobilized on a GLC chip following manufacturer's instruction. […] Reactions were carried in PBS (pH 6.0, 0.005% Surfactant P20) at 25° C. After each sample run, the chip surface was regenerated using PBS, pH 7.4. The data, in the form of sensograms, was analysed using the data-fitting programs in the ProteOn system.

[3] = biological target: T1, native human purified properdin …; assay: SPR, purified hybridoma antibody on human properdin

T2 sequence (P55899 24-297 limits assumed, chain 1 of 2): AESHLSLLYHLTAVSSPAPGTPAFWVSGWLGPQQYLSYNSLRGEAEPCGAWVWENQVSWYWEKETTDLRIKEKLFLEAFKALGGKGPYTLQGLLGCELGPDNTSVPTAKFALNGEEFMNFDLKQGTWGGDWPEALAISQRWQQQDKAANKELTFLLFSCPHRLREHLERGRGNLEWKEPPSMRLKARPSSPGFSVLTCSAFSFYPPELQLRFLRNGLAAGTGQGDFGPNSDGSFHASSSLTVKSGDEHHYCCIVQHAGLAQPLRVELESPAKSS
T2 sequence (P61769 21-119 limits assumed, chain 2 of 2): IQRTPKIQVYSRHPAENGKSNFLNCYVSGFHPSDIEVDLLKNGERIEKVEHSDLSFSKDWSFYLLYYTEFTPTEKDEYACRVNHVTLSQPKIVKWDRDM
T1 sequence (P27918 28-469): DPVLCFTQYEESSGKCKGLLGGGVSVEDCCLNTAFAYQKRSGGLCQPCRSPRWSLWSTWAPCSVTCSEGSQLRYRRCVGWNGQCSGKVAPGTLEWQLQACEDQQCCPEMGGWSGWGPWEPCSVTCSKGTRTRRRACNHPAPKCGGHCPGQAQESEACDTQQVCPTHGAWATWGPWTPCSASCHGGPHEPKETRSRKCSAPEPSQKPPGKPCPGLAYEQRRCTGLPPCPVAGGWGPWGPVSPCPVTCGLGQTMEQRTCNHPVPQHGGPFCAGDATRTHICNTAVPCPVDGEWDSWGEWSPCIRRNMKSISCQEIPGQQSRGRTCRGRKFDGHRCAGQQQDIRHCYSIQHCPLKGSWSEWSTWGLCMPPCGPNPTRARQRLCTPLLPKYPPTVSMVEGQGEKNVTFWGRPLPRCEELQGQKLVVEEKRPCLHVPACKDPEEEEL

| Binder | Kd [1] | koff [1] | kon [1] | Kd [2] | koff [2] | kon [2] | Kd [3] | koff [3] | kon [3] |
| --- | --- | --- | --- | --- | --- | --- | --- | --- | --- |
| B1 | 2.81 nM | 0.00151 s⁻¹ | 540000 M⁻¹ s⁻¹ | – | – | – | – | – | – |
| B2 | 0.162 nM | 0.000128 s⁻¹ | 792000 M⁻¹ s⁻¹ | 66 nM | 0.0329 s⁻¹ | 502000 M⁻¹ s⁻¹ | – | – | – |
| B3 | 0.154 nM | 0.000142 s⁻¹ | 925000 M⁻¹ s⁻¹ | 554 nM | 0.125 s⁻¹ | 227000 M⁻¹ s⁻¹ | – | – | – |
| B4 | 2.07 nM | 0.000867 s⁻¹ | 420000 M⁻¹ s⁻¹ | – | – | – | – | – | – |
| B5 | – | – | – | – | – | – | 0.731 nM | 0.000509 s⁻¹ | 696000 M⁻¹ s⁻¹ |
